Test results published in patent US20170226155A1 (TRUSTEES OF TUFTS COLLEGE, published 2017).
Where no end group is shown, it is not given here. [ ]: non-standard residue; d: D form. The star is where a group is joined. boroPro = OB(O)[C@@H]1CCCN1*

Columns and labels:
[1] = molecular target: Dipeptidyl amino peptidase type IV (DPP IV); assay: cell-based or functional assay
[2] = molecular target: Dipeptidyl amino peptidase type IV (DPP IV); assay: cell-based or functional assay; remark: listed apart in the source

Binder	IC50 at ten minutes, pH 2 [1]	IC50 at ten minutes, pH 8 [1]	IC50, pH 2 (Tetrapeptide Prodrugs) [2]	IC50, pH 8 (Tetrapeptide Prodrugs) [2]
YPF[boroPro] [TyrProPheboroPro]	50 nM	60 nM	–	–
AAP[boroPro] [AlaAlaProboroPro]	3 µM	–	3 mM	2 mM
